B1: 6H8: anti-HSP90 monoclonal antibody produced by hybridoma FERM BP-11222; epitope … (antibody)
VH: QVQLQQSGPELVKPGASVRISCKASGYTFTSYYIHWVKQRPGQGLEWIGWIYPGNVNTKYNEKFKGKATLTADKSSSTAYMQLSSLTSEDSAVYFCARYGNYPFAYWGQGTLVTVSAAKTTAPSVYPLAPVCGDTTGSSVTLGCLVKGYF
VL: DVVMTQTPLSLPVSLGDQASISCRSSQSLVHSNGNTYLHWYLQKPGQSPKLLIYKVSNRFSGVPDRFSGSGSGTDFTLKISRVEAEDLGVYFCSQSTHVPPTFGGGTKLEIKRADAAPTVSIFPPSSEQLTSGGASVVCFLNNFYPKDINVKWKIDGS
B2: 6H8-OVA: high molecular weight conjugate of the 6H8 antibody and maleimide-activated OVA (conjugate)
VH: QVQLQQSGPELVKPGASVRISCKASGYTFTSYYIHWVKQRPGQGLEWIGWIYPGNVNTKYNEKFKGKATLTADKSSSTAYMQLSSLTSEDSAVYFCARYGNYPFAYWGQGTLVTVSAAKTTAPSVYPLAPVCGDTTGSSVTLGCLVKGYF
VL: DVVMTQTPLSLPVSLGDQASISCRSSQSLVHSNGNTYLHWYLQKPGQSPKLLIYKVSNRFSGVPDRFSGSGSGTDFTLKISRVEAEDLGVYFCSQSTHVPPTFGGGTKLEIKRADAAPTVSIFPPSSEQLTSGGASVVCFLNNFYPKDINVKWKIDGS
chain: GSIGAASMEFCFDVFKELKVHHANENIFYCPIAIMSALAMVYLGAKDSTRTQINKVVRFDKLPGFGDSIEAQCGTSVNVHSSLRDILNQITKPNDVYSFSLASRLYAEERYPILPEYLQCVKELYRGGLEPINFQTAADQARELINSWVESQTNGIIRNVLQPSSVDSQTAMVLVNAIVFKGLWEKAFKDEDTQAMPFRVTEQESKPVQMMYQIGLFRVASMASEKMKILELPFASGTMSMLVLLPDEVSGLEQLESIINFEKLTEWTSSNVMEERKIKVYLPRMKMEEKYNLTSVLMAMGITDVFSSSANLSGISSAESLKISQAVHAAHAEINEAGREVVGSAEAGVDAASVSEEFRADHPFLFCIKHIATNAVLFFGRCVSP

Experiments:
cell surface HSP90 [1] = test: FACS staining of antigen-presenting cells with the 6H8 antibody; type: binding; conditions: DC2.4, mouse BMDC, human immature and mature DC, mouse peritoneal macrophages, J774
Procedure: (1) 1.1 mg of the biotinylation reagent EZ-Link (registered trademark) Sulfo-NHS-Biotin (21217, Takara Bio Inc.) was dissolved in 250 μl of pure water (concentration 10 mM). 2 of the solution of the biotinylation reagent was added to 100 of an antibody protein (1 mg/ml), and the reaction was allowed to proceed while cooling on ice for 2 hours. After the reaction, the unreacted biotin reagent was removed using Centricon[5k] (Millipore). The reaction product was adjusted to a final concentration of 1 mg/ml and stored at 4° C. (2) DC2.4 not subjected to membrane permeabilization (1×10^6 cells/0.1 ml), along with the biotinylated anti-HSP90 antibody (1 μg/ml), was incubated at 4° C. for 30 minutes. For negative control, DC2.4 was likewise incubated in an antibody-free PBS. (3) After the unreacted antibody was removed, DC2.4 (1×10^6 cells/0.1 ml), along with PE-cy5 streptavidin (eBioscience, 15-4317-82, used at a concentration of 0.5 μg/ml), was incubated at 4° C. for 30 minutes. (4) After the unreacted PE-cy5 streptavidin was removed, the cells were analyzed by FACS (Becton Dickinson). […]

cell surface HSP90 [2] = test: FACS staining of cell surface HSP90 on DC2.4 cells not subjected to membrane permeabilization; type: binding; conditions: DC2.4 cells not permeabilized, biotinylated antibody 1 μg/ml, 4° C.
Procedure: (1) 1.1 mg of the biotinylation reagent EZ-Link (registered trademark) Sulfo-NHS-Biotin (21217, Takara Bio Inc.) was dissolved in 250 μl of pure water (concentration 10 mM). 2 of the solution of the biotinylation reagent was added to 100 of an antibody protein (1 mg/ml), and the reaction was allowed to proceed while cooling on ice for 2 hours. After the reaction, the unreacted biotin reagent was removed using Centricon[5k] (Millipore). The reaction product was adjusted to a final concentration of 1 mg/ml and stored at 4° C. (2) DC2.4 not subjected to membrane permeabilization (1×10^6 cells/0.1 ml), along with the biotinylated anti-HSP90 antibody (1 μg/ml), was incubated at 4° C. for 30 minutes. For negative control, DC2.4 was likewise incubated in an antibody-free PBS. (3) After the unreacted antibody was removed, DC2.4 (1×10^6 cells/0.1 ml), along with PE-cy5 streptavidin (eBioscience, 15-4317-82, used at a concentration of 0.5 μg/ml), was incubated at 4° C. for 30 minutes. (4) After the unreacted PE-cy5 streptavidin was removed, the cells were analyzed by FACS (Becton Dickinson).
The right panels of FIGS. 2A and B show FACS data (histograms) for DC2.4 cells stained with each monoclonal antibody in the same manner as Example 2.

OT-I CD8+ T cells [3] = test: In vivo OT-I CD8+ T cell proliferation by 6H8-OVA after 6H8 antibody given in advance; design: species or system mouse; conditions: 6H8 antibody 20 μg in advance, 6H8-OVA (0.3 mg), tail vein, 72 hours
Procedure: The 6H8 antibody or IgG2a [normal mouse IgG2a (nmIgG2a), 20 μg] was diluted with 200 μl of PBS and administered to B6 mice from the tail vein. As a control, a group of animals that received PBS alone was also prepared.
Subsequently, CFSE-labeled OT-I CD8^+ T cells ([…]) were suspended in 200 μl of RPMI and administered from the tail vein. Concurrently, 6H8-OVA (0.3 mg) diluted with 200 μl of PBS was administered from the tail vein. As a control, a group of animals that received PBS alone was also prepared.
72 hours later, splenocytes were recovered from each recipient mouse, and decay of CFSE intensity were measured using FACS Calibur (BD Biosciences) to confirm the proliferation of transferred cells.

OT-I CD8+ T cells [4] = test: In vitro cross-presentation assay with BMDC of normal and FcRγ KO mouse; type: cell-based; conditions: BMDC pulsed 3 hours, co-culture with OT-I CD8+ T cells, IFNγ ELISA
Procedure: (1) A bone marrow-derived dendritic cells (BMDCs) were established from a normal mouse and an FcRγ KO mouse (supplied by Professor Akira Shibuya, Immunology, Life System Medical Sciences, Majors of Medical Sciences, Graduate School of Comprehensive Human Sciences, University of Tsukuba) as described below. Bone marrow was recovered from a mouse femur and tibia, and 1×10^6 cells each were cultured in a 24-well plate using 2 ml/well of a complete RPMI containing 20 ng/ml recombinant mouse GM-CSF (R&D). Half of the medium was exchanged for a fresh medium on day 3 of cultivation, and the cells obtained on day 5 of cultivation were used as the BMDC. (2) BMDCs at Day 5 induced in a GM-CSF-dependent manner was stained with biotin-6H8 (2.5 μg/ml) and streptavidin-APC (0.2 μg/ml), and its fluorescence was determined using FACS Canto (BD).
(1) A pellet of 1×10^6 BMDC cells at Day 5 induced in a GM-CSF-dependent manner were prepared in a 15-ml tube. After adding 400 μl of an antigen (6H8-OVA, OVA, or OVA257-264) thereto, the tube was incubated with 5% CO2 at 37° C. for 3 hours. The cells were fixed in 0.5% para-formaldehyde, after which the cells were washed with 0.1 M glycine and then with RPMI; thereafter, the density was adjusted to 1×10^5 cells/ml. (2) Concurrently, OT-I CD8^+ T cells were purified and the density was adjusted to 1×10^5 cells/ml. […]

[5] = system: cytotoxic T cells specific for OVA257-264 epitope; test: Induction of OVA257-264-specific cytotoxic T cells by immunization (tetramer staining, 51Cr release); type: in vivo; conditions: 3 μg per mouse
Procedure: The mice were immunized twice at a 1-week interval. One week after second immunization, splenocytes were cultured in the presence of the OVA257-264 peptide for 5 days. The resulting cytotoxic T cells were monitored by tetramer staining [T cells were stained using T-Select H-2K^b OVA Tetramer-[…]-PE (MBL, TS5001-1, amount used=1 test/tube) at room temperature for 30 minutes], and standard ^51Cr release assay [2×10^6 each of mouse tumor cells E.G7, supplied by Dr. Michael Bevan at the University of Washington, U.S.A. (see Cell vol. 54:777-785, 1988), and EL4 (purchased from ATCC) were labeled with 50 microcuries of sodium ^51Cr, and used as the target cells; the cytotoxic T cells were added to 5×10^3 target cells as indicated in FIG. 8E; after cultivation for 4 hours, free ^51Cr in the supernatant was measured to calculate the cytotoxic activity; the EL4 cells with or without pulsing with the peptide OVA257-264 were prepared].

Row | Molecule | recognition of cell surface HSP90 on antigen-presenting cells (FACS) (cell surface HSP90 [1]) | recognition of cell surface HSP90 (FACS) (cell surface HSP90 [2]) | effect on promotion of proliferation of CD8+ T cells by 6H8-OVA (OT-I CD8+ T cells [3]) | cross-presentation potential of FcRγ KO mouse-derived dendritic cells compared with normal mouse-derived dendritic cells (OT-I CD8+ T cells [4]) | tetramer-positive cells after immunization ([5]; twice at 1-week interval, splenocytes cultured with OVA257-264 5 days) | cytotoxicity in 51Cr release assay ([5]; twice, target cells E.G7, EL4 with or without OVA257-264)
1 | B1 | recognized cell surface HSP90 on cells other than human PBMC-derived immature DC | recognized cell surface HSP90 with high sensitivity | enhanced |  |  | 
2 | B2 |  |  |  | significantly decreased | produced tetramer-positive cells | cytotoxicity to OVA257-264 epitope was also observed

— patent US20110280881A1, “NOVEL ANTI-HSP90 MONOCLONAL ANTIBODY” (RIKEN, priority 2010, published 2011)
